Assay results from US20040137516A1 (PHAGETECH, published 2004).
Where no end group is shown, it is not given here.

T1: Gal4 activation domain-STAAU_R2 fusion (pGADSTAAU_R2) (yeast; Staphylococcus aureus, UniProt P0A022 1-377)
T1 construct: Expressed in yeast AH109 for two-hybrid analysis; not shown: limits and vector-encoded tags not st
T1 sequence: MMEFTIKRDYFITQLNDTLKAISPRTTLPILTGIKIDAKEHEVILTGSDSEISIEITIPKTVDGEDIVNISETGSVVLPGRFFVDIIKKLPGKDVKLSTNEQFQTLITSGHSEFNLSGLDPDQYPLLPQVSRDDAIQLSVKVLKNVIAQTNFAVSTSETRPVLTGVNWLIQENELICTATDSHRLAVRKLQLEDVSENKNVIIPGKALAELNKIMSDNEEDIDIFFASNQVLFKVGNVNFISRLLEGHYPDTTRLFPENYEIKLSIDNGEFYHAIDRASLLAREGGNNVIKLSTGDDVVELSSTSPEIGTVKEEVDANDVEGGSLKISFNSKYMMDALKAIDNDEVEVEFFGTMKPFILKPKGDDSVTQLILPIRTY

T2: S. aureus STAAU_R2 (DNA-directed DNA polymerase III beta subunit, DnaN), native protein in S. aureus extract (Staphylococcus aureus, UniProt P0A022 1-377)
T2 construct: also called PT48; PT 48
T2 sequence: T1 sequence

T3: Glutathione-S-transferase (GST)-tagged STAAU_R2 (Staphylococcus aureus, UniProt P0A022 1-377)
T3 construct: Purified recombinant polypeptide captured by an anti-GST antibody on a CM5 chip; not shown: glutathione-S-transferase (GST) tag
T3 sequence: T1 sequence

B1: Gal4 activation domain-Twort ORF 168 fusion (pGADT7 construct) (other)
chain: MLFFKEKFYNELSYYRGGHKDLESMFELALEYIEKLEEEDEQQVTDYENAMEEELRDAVDVIESQLEIIKDIVR
notes: Second orientation of the two-hybrid test; also called Twort ORF 168 polypeptide; not shown: limits and vector-encoded tags not st
B2: Gal4 DNA binding domain-Lamin C control fusion (pGBKT7LaminC) (other)
chain: MKLLSSIEQACDICRLKKLKCSKEKPKCAKCLKNNWECRYSPKTKRSPLTRAHLTEVESRLERLEQLFLLIFPREDLDMILKMDSLQDIKALLTGLFVQDNVNKDAVTDRLASVETDMPLTLRQHRISATSSSEESSNKGQRQLTVSSEEVVSREVSGIKAAYEAELGDARKTLDSVAKERARLQLELSKVREEFKELKARNTKKEGDLIAAQARLKDLEALLNSKEAALSTALSEKRTLEGELHDLRGQVAKLEAALGEAKKQLQDEMLRRVDAENRLQTMKEELDFQKNIYSEELRETKRRHETRLVEID
notes: also called pGBKLaminC
B3: GST/44AHJD ORF 25 fusion protein (other)
chain: MERKYKTVLLYCDEIKGHFPHQISMFEDLYDAKVVYSYYEYNLFTKKYAYIIEYIKEI
modifications: also: fusion protein with GST moiety, not in chain
notes: also called GST/ORF 25; GST/ORF25; not shown: glutathione-S-transferase (GST) moiety encoded by expression vector pGEX 4T-1 (Pharmacia)
B4: purified bacteriophage 44AHJD ORF 25 protein (other)
chain: B3 chain
notes: Purified recombinant polypeptide injected as analyte in SPR; also called 44ADJH ORF 25
B5: GST/G1 ORF 240 fusion protein (other)
chain: MVIPSIKAQNKFKNELEYYKQGHISESKMLELAFDYIQELEQNNEYVTNLLEEERYGE
modifications: also: fusion protein with GST moiety, not in chain
notes: also called GST ORF240; not shown: glutathione-S-transferase (GST) moiety encoded by expression vector pGEX 4T-1

Key:
[1] = target: B2; assay: yeast two-hybrid, growth on THAL minus medium
[2] = target: T1, Gal4 activation domain-STAAU_R2 fusion …; assay: yeast two-hybrid, growth on THAL minus medium
[3] = target: T2, S. aureus STAAU_R2 (DNA-directed DNA …); assay: affinity chromatography of S. aureus extract on GST/ORF25-Affigel 10; 1% SDS eluate, SDS-PAGE silver stain, MALDI-ToF identification
[4] = target: T3, Glutathione-S-transferase (GST)-tagged …; assay: SPR (Biacore 2000); GST-tagged STAAU_R2 captured by anti-GST antibody on CM5 chip, ORF 25 as analyte
[5] = target: T2, S. aureus STAAU_R2 (DNA-directed DNA …); assay: affinity chromatography of S. aureus extract on GST ORF240-Affigel 10; SDS-PAGE silver stain

B1
binding result [1]: no binding

B2
binding result [2]: no binding

B3
binding result [3]: binds

B4
binding result [4]: binds

B5
binding result [5]: binds
